Experimental findings from patent US20240368289A1 (LAEKNA THERAPEUTICS SHANGHAI, published 2024) are described below.

Assay [1] has as its target T1, ACVR2A mouse Fc fusion protein (mouse, UniProt P27037 20-135 (human entry), limits assumed).
T1 construct: not shown: mouse Fc
In words: Activin A competitive ELISA: ACVR2A mouse Fc fusion coated, IgG titrated, then 16.7 nM Activin A added; bound Activin A detected (luminescence). As to the method:
(§1) 2.3 Activin A Competitive ELISA. To select ACVR2A hits that could block the interaction between ACVR2A and its ligand Activin A, a competitive ELISA assay was set up. 30 μL 4.17 nM ACVR2A mouse Fc fusion protein was coated in 384-well HB plate at 4° C. overnight following blocking with 5% BSA. Anti-ACVR2A Fab fragment or antibodies with different concentrations were added to the plate and incubated on an orbital shaker at room temperature for 1 hours to allow binding of the antibodies. […] After 5 times washing with TBST, 30 μl of 20 nM goat anti-activin A polyclonal antibody (Abcam, ab7153) in blocking buffer was added into plate and incubated at room temperature for 1 hour. Last, 30 μl of anti-goat IgG-HRP (Beyotime, A0181) in blocking buffer (1:500 dilution) was added to plate for another 30 min incubation following washing step. Luminescence signal was collected on Tecan infinite M1000 after adding 30 μl ECL substrate.
A general note: In an ELISA, binding on a coated surface is turned into a signal by an enzyme label.

For assay [2], the target named is T1, ACVR2A mouse Fc fusion protein. In words: Activin A competitive ELISA; ACVR2A mouse Fc coated, antibody titrated, competitor activin A. As to the method: as §1
The target of assay [3] is ACVR2A on HEK293T-B1 cells (ACVR2B knockout stable cell line) (UniProt P27037 20-513). In words: cell-based or functional assay.
The target in assay [4] is T2, recombinant protein comprising the human ACVR2A extracellular domain (ECD) fused to the human IgG1 Fc region (human, UniProt P27037 20-135).
T2 construct: extracellular domain; also called ACVR2A-Fc; ACVR2A-FC; not shown: human IgG1 Fc region
In words: SPR, Biacore; format and antigen construct not given. (In SPR one partner is held on a chip, and binding of the other changes the refractive index at the surface.)

Assay [5] deals with T2, recombinant protein comprising the …. Kind of assay: SPR, Biacore 3000 (1st test); ACVR2A-Fc captured by anti-human Fc, Fab injected. From the text:
(§2) 2.2 Surface Plasmon resonance (SPR) measurements and affinity analysis by anti-human Fc capture format. After affinity panning, output-3 (03) of CDRH1 library were screened for binding ability by Fab ELISA and followed by NGS DNA sequencing. Based on binding Elisa and sequence abundance from NGS data, 11 clones were select for SPR analysis. Approximately 100-800 resonance units (RU) of antigen ACVR2A, was captured by anti-human Fc immobilized on a channel of a CM5 chip with an activated amine group. After immobilization, Fab antibodies were injected into the channels at 25° C. in HBS-EP buffer, with a flow rate of 30 μL/min, 1 min. When the data collection was finished in each cycle, the sensor surface was regenerated using 80 mM NaOH with a flow rate of 30 μL/min, 15 sec and reused chip in next cycle. After subtraction of reference surface and buffer injection, curve was locally fitted with BIA evaluation version 4.1 using a 1:1 Langmuir binding mode.
(§3) The affinity of selected 11 anti-ACVR2A monoclonal antibody clones were determined on Biacore®3000 and Biacore®8000 as shown in Table 4 below.

The target is the same in assay [6]. In words: SPR, Biacore 8000 (2nd test); ACVR2A-Fc captured by anti-human Fc, Fab injected.
Text: as §2, §3

Assay [7] shares this target. Kind of assay: SPR, Biacore 3000 (1st test); ACVR2A-Fc captured by anti-human Fc, Fab injected; 1st test (Biacore 3000).
Text: as §2, §3

T1 sequence (P27037 20-135 limits assumed): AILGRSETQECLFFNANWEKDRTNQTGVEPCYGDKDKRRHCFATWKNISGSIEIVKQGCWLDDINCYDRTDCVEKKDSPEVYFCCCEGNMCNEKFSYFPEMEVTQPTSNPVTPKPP
T2 sequence (P27037 20-135): as the sequence (P27037 20-135 limits assumed) above
Sequence of ACVR2A on HEK293T-B1 cells (ACVR2B knockout stable cell line) (P27037 20-513): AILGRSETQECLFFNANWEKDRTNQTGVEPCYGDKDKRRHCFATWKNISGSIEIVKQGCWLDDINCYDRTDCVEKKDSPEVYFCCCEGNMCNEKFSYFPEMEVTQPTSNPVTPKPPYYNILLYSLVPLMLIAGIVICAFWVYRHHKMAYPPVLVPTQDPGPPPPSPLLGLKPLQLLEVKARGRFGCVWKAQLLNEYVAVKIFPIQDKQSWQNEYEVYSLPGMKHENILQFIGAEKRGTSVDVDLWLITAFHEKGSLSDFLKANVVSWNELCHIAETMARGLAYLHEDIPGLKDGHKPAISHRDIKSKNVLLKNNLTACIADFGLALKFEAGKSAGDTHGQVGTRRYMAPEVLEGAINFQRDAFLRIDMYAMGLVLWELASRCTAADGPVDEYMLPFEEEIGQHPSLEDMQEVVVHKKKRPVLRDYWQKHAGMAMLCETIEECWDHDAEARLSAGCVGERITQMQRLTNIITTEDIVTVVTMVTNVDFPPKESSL

B1: 366 (antibody, V domains shown)
VH: QVQLVQSGAEVKKPGSSVKVSCKASGFQFRTSLISWVRQAPGQGLEWMGGLIPIFGTANYAQKFQGRVTITADESTSTAYMELSSLRSEDTAVYYCVKDLTWTNLGLDIWGQGTMVTVSS
VL: EIVMTQSPSSLSASVGDTVTITCRASQGASQWLKWYQQKPGKAPRLLIYAASSLHSGVPSRFSGSGSGTHFTLTISSLQPEDFATYFCQQSYSTPFTFGPGTKLEIK
Consider B1, for which, in assay [1], the “IC50 (read off the curve)” value is about 9 nM.

B2: IgG NGS-1 (CDR shuffling) (antibody, V domains shown)
VH: QVQLVQSGAEVKKPGSSVKVSCKASGFQFRTSLISWVRQAPGQGLEWMGGLIPIFGTANYAQKFQGRVTITADESTSTAYMELSSLRSEDTAVYYCVKDLTWTNLGLDIWGQGTMVTVSS
VL: EIVMTQSPSSLSASVGDTVTITCRASQGVSRWLAWYQQKPGKAPRLLIYSAASSLYSGVPSRFSGSGSGTHFTLTISSLQPEDFATYFCQQSYSTPFTFGPGTKLEIK
notes: IgG: human IgG1 / kappa from pFUSE vectors, made in 293F cells
The term IC50 denotes the concentration at which inhibition is half-maximal. A higher IC50 goes with a need for much substance. Usually Kd stands for a measure of binding affinity in units of concentration. As usually defined, the koff is a measure of how fast the partners let go of each other. One may read the kon as the rate constant with which the complex forms. On to B2, for which, in assay [2], the IC50 came to 1.86 nM. Besides, in assay [3], the “IC50 (M), HEK293T-B1 CAGA-Luc, Activin A” value was 3.28e-09 M and the “IC50 (M), HEK293T-B1 CAGA-Luc, GDF8” value came to 2.42e-10 M. In assay [4], the Kd worked out at 0.638 nM, the dissociation rate constant (koff) is 0.000118 s⁻¹ and the kon came out at 185000 M⁻¹ s⁻¹.

B3: hit 21343 (IgG) (antibody, V domains shown)
VH: QVQLVQSGAEVKKPGSSVKVSCKASGPRFQDLSISWVRQAPGQGLEWMGGIIPIYGTANYAQKFQGRVTITADESTSTAYMELSSLRSEDTAVYYCVKDLTWTNLGLDIWGQGTMVTVSS
VL: EIVMTQSPSSLSASVGDTVTITCRASQGVSRWLAWYQQKPGKAPRLLIYNARSLFSGVPSRFSGSGSGTHFTLTISSLQPEDFATYFCQQSYSTPFTFGPGTKLEIK
notes: as for B2
In assay [2], B3 returned a concentration for half-maximal inhibition (IC50) of 4.74 nM. For the same molecule, in assay [3], the “IC50 (M), HEK293T-B1 CAGA-Luc, Activin A” value came out at 9.07e-09 M and the “IC50 (M), HEK293T-B1 CAGA-Luc, GDF8” value worked out at 1.64e-09 M. In assay [4], the dissociation constant Kd was determined as 0.43 nM, the koff amounted to 4.51e-05 s⁻¹ and the kon was 105000 M⁻¹ s⁻¹.

B4: hit 21169 (IgG) (antibody, V domains shown)
VH: QVQLVQSGAEVKKPGSSVKVSCKASGFQFRTSLISWVRQAPGQGLEWMGGLIPIFGTANYAQKFQGRVTITADESTSTAYMELSSLRSEDTAVYYCVKDLTWTNLGLDIWGQGTMVTVSS
VL: EIVMTQSPSSLSASVGDTVTITCRASQGVSRWLAWYQQKPGKAPRLLIYAAQGLSSGVPSRFSGSGSGTHFTLTISSLQPEDFATYFCQQSYSTPFTFGPGTKLEIK
notes: as for B2
With B4, the IC50 in assay [2] stood at 5.3 nM. In assay [3], the “IC50 (M), HEK293T-B1 CAGA-Luc, Activin A” value came to 2.66e-09 M and the “IC50 (M), HEK293T-B1 CAGA-Luc, GDF8” value is 4.99e-10 M. In addition, in assay [4], the dissociation constant (Kd) worked out at 0.663 nM, the off-rate (koff) amounted to 0.000238 s⁻¹ and the on-rate (kon) is 359000 M⁻¹ s⁻¹.

B5: clone A (Fab) (Fab, V domains shown)
VH: QVQLVQSGAEVKKPGSSVKVSCKASGGQFYHSRISWVRQAPGQGLEWMGGIIPIYGTANYAQKFQGRVTITADESTSTAYMELSSLRSEDTAVYYCVKDLTWTNLGLDIWGQGTMVTVSS
VL: EIVMTQSPSSLSASVGDTVTITCRASQGVSRWLAWYQQKPGKAPRLLIYAASSLHSGVPSRFSGSGSGTHFTLTISSLQPEDFATYFCQQSYSTPFTFGPGTKLEIK
notes: Fab made in E. coli TG1 and purified on Ni-NTA
With B5, in assay [5], the Kd was found to be 5.29 nM and the koff stood at 0.00227 s⁻¹. For the same molecule, in assay [6], the Kd is 5.35 nM, the koff turned out to be 0.00257 s⁻¹ and the on-rate (kon) was determined as 481000 M⁻¹ s⁻¹. Further, the kon in assay [7] was 429000 M⁻¹ s⁻¹.

B6: hit 21366 (IgG) (antibody, V domains shown)
VH: QVQLVQSGAEVKKPGSSVKVSCKASGPRFQDLSISWVRQAPGQGLEWMGGIIPIYGTANYAQKFQGRVTITADESTSTAYMELSSLRSEDTAVYYCVKDLTWTNLGLDIWGQGTMVTVSS
VL: EIVMTQSPSSLSASVGDTVTITCRASQGVSRWLAWYQQKPGKAPRLLIYWAAHLQSGVPSRFSGSGSGTHFTLTISSLQPEDFATYFCQQSYSTPFTFGPGTKLEIK
notes: as for B2
Regarding B6, the 50% inhibitory concentration (IC50) in assay [2] was 4.15 nM. Further, in assay [3], the “IC50 (M), HEK293T-B1 CAGA-Luc, Activin A” value came out at 3.64e-09 M and the “IC50 (M), HEK293T-B1 CAGA-Luc, GDF8” value is 1.65e-09 M. Also, in assay [4], the Kd came to 0.153 nM, the koff is 7.91e-06 s⁻¹ and the association rate constant (kon) was 51600 M⁻¹ s⁻¹.

B7: hit 275 (IgG) (antibody, V domains shown)
VH: QVQLVQSGAEVKKPGSSVKVSCKASGFQFRTSLISWVRQAPGQGLEWMGGLIPIFGTANYAQKFQGRVTITADESTSTAYMELSSLRSEDTAVYYCVKDLTWTNLGLDIWGQGTMVTVSS
VL: EIVMTQSPSSLSASVGDTVTITCRASQGPSRWLAWYQQKPGKAPRLLIYAASSLHSGVPSRFSGSGSGTHFTLTISSLQPEDFATYFCQQSYSTPFTFGPGTKLEIK
notes: as for B2
B7 showed a 50% inhibitory concentration (IC50) in assay [2] of 6.04 nM. In addition, in assay [3], the “IC50 (M), HEK293T-B1 CAGA-Luc, Activin A” value amounted to 4.91e-09 M and the “IC50 (M), HEK293T-B1 CAGA-Luc, GDF8” value was found to be 8.81e-10 M. Besides, in assay [4], the Kd worked out at 0.872 nM, the off-rate constant (koff) was determined as 0.000319 s⁻¹ and the kon amounted to 366000 M⁻¹ s⁻¹.

B8: hit 21155 (IgG) (antibody, V domains shown)
VH: QVQLVQSGAEVKKPGSSVKVSCKASGFQFRTSLISWVRQAPGQGLEWMGGLIPIFGTANYAQKFQGRVTITADESTSTAYMELSSLRSEDTAVYYCVKDLTWTNLGLDIWGQGTMVTVSS
VL: EIVMTQSPSSLSASVGDTVTITCRASQGVSRWLAWYQQKPGKAPRLLIYGASPLSSGVPSRFSGSGSGTHFTLTISSLQPEDFATYFCQQSYSTPFTFGPGTKLEIK
notes: as for B2
On to B8, for which, in assay [2], the concentration for half-maximal inhibition (IC50) was 5.13 nM. Also, in assay [3], the “IC50 (M), HEK293T-B1 CAGA-Luc, Activin A” value was 1.78e-09 M and the “IC50 (M), HEK293T-B1 CAGA-Luc, GDF8” value turned out to be 6.51e-10 M. Further, in assay [4], the Kd worked out at 0.211 nM, the koff amounted to 8.07e-05 s⁻¹ and the kon was 382000 M⁻¹ s⁻¹.

B9: hit 21341 (LA01) (IgG) (antibody, V domains shown)
VH: QVQLVQSGAEVKKPGSSVKVSCKASGPRFQDLSISWVRQAPGQGLEWMGGIIPIYGTANYAQKFQGRVTITADESTSTAYMELSSLRSEDTAVYYCVKDLTWTNLGLDIWGQGTMVTVSS
VL: EIVMTQSPSSLSASVGDTVTITCRASQGVSRWLAWYQQKPGKAPRLLIYSARALHSGVPSRFSGSGSGTHFTLTISSLQPEDFATYFCQQSYSTPFTFGPGTKLEIK
notes: IgG: human IgG1 / kappa from pFUSE vectors, made in 293F cells; also called ACVR2A Ab LA01
As to B9, in assay [2], the IC50 turned out to be 4.83 nM. Also, in assay [3], the “IC50 (M), HEK293T-B1 CAGA-Luc, Activin A” value came to 6.24e-09 M and the “IC50 (M), HEK293T-B1 CAGA-Luc, GDF8” value worked out at 1.6e-09 M. In assay [4], the equilibrium dissociation constant (Kd) was determined as 0.172 nM, the off-rate constant (koff) worked out at 5.44e-05 s⁻¹ and the kon was determined as 316000 M⁻¹ s⁻¹.
